The values below are quoted from earlier work in article PMC2678197 (Chemistry & biology, 2009).

Usually Kd stands for a measure of binding affinity in units of concentration.

This data set has as its target eotaxin (Homo sapiens, UniProt P51671). Particulars: read-out: equilibrium dissociation constant (Kd); binding to eotaxin; ref [26].

Sequence of eotaxin (P51671 24-97): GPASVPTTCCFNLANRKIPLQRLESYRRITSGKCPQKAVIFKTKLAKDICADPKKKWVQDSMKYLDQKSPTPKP

Take “35-residue non-sulfated peptide: 35-residue non-sulfated peptide corresponding to the complete N-terminal region of CCR3 (MTTSLDTVETFGTTSYYDDVGLLCEKADTRALMAQ; unsulfated; the limits 1-35 are inferred from '35-residue' and 'complete N-terminal region')”: the Kd was 80 ± 38 µM.
